# Earlier results in article PMC3204931.
# Biological target: Rac2 (Homo sapiens) (UniProt P15153)
substance,measurement,value
PLD2 (from UniProt O14939),Kd,10 nM
